Test results reported in IntAct's records for PubMed 29892012.

B1: Ligand of Numb protein X 2 (Homo sapiens), Q8N448 (parent)
chain: MGTTSDEMVSVEQTSSSSLNPLCFECGQQHWTRENHLYNYQNEVDDDLVCHICLQPLLQPLDTPCGHTFCYKCLRNFLQEKDFCPLDRKRLHFKLCKKSSILVHKLLDKLLVLCPFSSVCKDVMQRCDLEAHLKNRCPGASHRRVALERRKTSRTQAEIENENGPTLLDPAGTLSPEADCLGTGAVPVERHLTSASLSTWSEEPGLDNPAFEESAGADTTQQPLSLPEGEITTIEIHRSNPYIQLGISIVGGNETPLINIVIQEVYRDGVIARDGRLLAGDQILQVNNYNISNVSHNYARAVLSQPCNTLHLTVLRERRFGNRAHNHSDSNSPREEIFQVALHKRDSGEQLGIKLVRRTDEPGVFILDLLEGGLAAQDGRLSSNDRVLAINGHDLKYGTPELAAQIIQASGERVNLTIARPGKPQPGNTIREAGNHSSSSQHHTPPPYYSRPSSHKDLTQCVTCQEKHITVKKEPHESLGMTVAGGRGSKSGELPIFVTSVPPHGCLARDGRIKRGDVLLNINGIDLTNLSHSEAVAMLKASAASPAVALKALEVQIVEEATQNAEEQPSTFSENEYDASWSPSWVMWLGLPSTLHSCHDIVLRRSYLGSWGFSIVGGYEENHTNQPFFIKTIVLGTPAYYDGRLKCGDMIVAVNGLSTVGMSHSALVPMLKEQRNKVTLTVICWPGSLV
B2: Ligand of Numb protein X 2 (Homo sapiens), Q8N448 (parent)
chain: B1 chain
partner: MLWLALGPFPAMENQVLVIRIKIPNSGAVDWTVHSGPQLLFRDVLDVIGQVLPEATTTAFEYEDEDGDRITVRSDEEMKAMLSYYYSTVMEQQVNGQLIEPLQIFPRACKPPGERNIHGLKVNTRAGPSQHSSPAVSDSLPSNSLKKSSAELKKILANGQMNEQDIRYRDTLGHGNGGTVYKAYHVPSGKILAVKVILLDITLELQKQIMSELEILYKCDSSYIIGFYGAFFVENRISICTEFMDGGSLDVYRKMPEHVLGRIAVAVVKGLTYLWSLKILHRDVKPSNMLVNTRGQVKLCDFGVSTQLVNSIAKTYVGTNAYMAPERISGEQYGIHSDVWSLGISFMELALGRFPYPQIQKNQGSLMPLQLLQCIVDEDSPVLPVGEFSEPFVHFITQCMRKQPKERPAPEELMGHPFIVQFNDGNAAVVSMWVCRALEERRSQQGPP
B3: BTB/POZ domain-containing protein KCTD14 (Homo sapiens), Q9BQ13 (parent)
chain: MWQGCAVERPVGRMTSQTPLPQSPRPRRPTMSTVVELNVGGEFHTTTLGTLRKFPGSKLAEMFSSLAKASTDAEGRFFIDRPSTYFRPILDYLRTGQVPTQHIPEVYREAQFYEIKPLVKLLEDMPQIFGEQVSRKQFLLQVPGYSENLELMVRLARAEAITARKSSVLVCLVETEEQDAYYSEVLCFLQDKKMFKSVVKFGPWKAVLDNSDLMHCLEMDIKAQGYKVFSKFYLTYPTKRNEFHFNIYSFTFTWW
B4: Kinetochore protein NDC80 homolog (Homo sapiens), O14777 (parent)
chain: MKRSSVSSGGAGRLSMQELRSQDVNKQGLYTPQTKEKPTFGKLSINKPTSERKVSLFGKRTSGHGSRNSQLGIFSSSEKIKDPRPLNDKAFIQQCIRQLCEFLTENGYAHNVSMKSLQAPSVKDFLKIFTFLYGFLCPSYELPDTKFEEEVPRIFKDLGYPFALSKSSMYTVGAPHTWPHIVAALVWLIDCIKIHTAMKESSPLFDDGQPWGEETEDGIMHNKLFLDYTIKCYESFMSGADSFDEMNAELQSKLKDLFNVDAFKLESLEAKNRALNEQIARLEQEREKEPNRLESLRKLKASLQGDVQKYQAYMSNLESHSAILDQKLNGLNEEIARVELECETIKQENTRLQNIIDNQKYSVADIERINHERNELQQTINKLTKDLEAEQQKLWNEELKYARGKEAIETQLAEYHKLARKLKLIPKGAENSKGYDFEIKFNPEAGANCLVKYRAQVYVPLKELLNETEEEINKALNKKMGLEDTLEQLNAMITESKRSVRTLKEEVQKLDDLYQQKIKEAEEEDEKCASELESLEKHKHLLESTVNQGLSEAMNELDAVQREYQLVVQTTTEERRKVGNNLQRLLEMVATHVGSVEKHLEEQIAKVDREYEECMSEDLSENIKEIRDKYEKKATLIKSSEE
partner: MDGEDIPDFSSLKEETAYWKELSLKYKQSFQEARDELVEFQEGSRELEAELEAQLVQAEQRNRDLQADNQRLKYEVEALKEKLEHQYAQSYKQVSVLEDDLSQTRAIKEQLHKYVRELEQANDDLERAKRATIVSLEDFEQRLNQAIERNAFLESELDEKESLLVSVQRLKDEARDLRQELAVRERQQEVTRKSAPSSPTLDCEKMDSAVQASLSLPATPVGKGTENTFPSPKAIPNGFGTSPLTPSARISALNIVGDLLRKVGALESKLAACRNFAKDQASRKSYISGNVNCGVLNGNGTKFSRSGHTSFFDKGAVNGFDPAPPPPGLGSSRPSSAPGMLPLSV
B5: Genetic suppressor element 1 (Homo sapiens), Q14687 (parent)
chain: MKGMSHEPKSPSLGMLSTATRTTATVNPLTPSPLNGALVPSGSPATSSALSAQAAPSSSFAAALRKLAKQAEEPRGSSLSSESSPVSSPATNHSSPASTPKRVPMGPIIVPPGGHSVPSTPPVVTIAPTKTVNGVWRSESRQDAGSRSSSGGRERLIVEPPLPQEKAGGPAIPSHLLSTPYPFGLSPSSVVQDSRFPPLNLQRPVHHVVPPSTVTEDYLRSFRPYHTTDDLRMSSLPPLGLDPATAAAYYHPSYLAPHPFPHPAFRMDDSYCLSALRSPFYPIPTPGSLPPLHPSAMHLHLSGVRYPPELSHSSLAALHSERMSGLSAERLQMDEELRREREREREREREREADREREKEREREREKEREQEKEREREKERERELERQREQRAREKELLAAKALEPSFLPVAELHGLRGHATEERGKPSEQLTPTRAEKLKDAGLQAPKPVQHPLHPVPTPHHTVPSLISNHGIFSLPSSSAATALLIQRTNEEEKWLARQRRLRQEKEDRQSQVSEFRQQVLEQHLDMGRPPVPAEAEHRPESTTRPGPNRHEPGGRDPPQHFGGPPPLISPKPQLHAAPTALWNPVSLMDNTLETRRAESHSLHSHPAAFEPSRQAAVPLVKVERVFCPEKAEEGPRKREPAPLDKYQPPPPPPREGGSLEHQPFLPGPGPFLAELEKSTQTILGQQRASLPQAATFGELSGPLKPGSPYRPPVPRAPDPAYIYDEFLQQRRRLVSKLDLEERRRREAQEKGYYYDLDDSYDESDEEEVRAHLRCVAEQPPLKLDTSSEKLEFLQLFGLTTQQQKEELVAQKRRKRRRMLRERSPSPPTIQSKRQTPSPRLALSTRYSPDEMNNSPNFEEKKKFLTIFNLTHISAEKRKDKERLVEMLRAMKQKALSAAVADSLTNSPRDSPAVSLSEPATQQASLDVEKPVGVAASLSDIPKAAEPGKLEQVRPQELSRVQELAPASGEKARLSEAPGGKKSLSMLHYIRGAAPKDIPVPLSHSTNGKSKPWEPFVAEEFAHQFHESVLQSTQKALQKHKGSVAVLSAEQNHKVDTSVHYNIPELQSSSRAPPPQHNGQQEPPTARKGPPTQELDRDSEEEEEEDDEDGEDEEEVPKRKWQGIEAVFEAYQEHIEEQNLERQVLQTQCRRLEARHYSLSLTAEQLSHSVAELRSQKQKMVSERERLQAELDHLRKCLALPAMHWPRGYLKGYPR
partner: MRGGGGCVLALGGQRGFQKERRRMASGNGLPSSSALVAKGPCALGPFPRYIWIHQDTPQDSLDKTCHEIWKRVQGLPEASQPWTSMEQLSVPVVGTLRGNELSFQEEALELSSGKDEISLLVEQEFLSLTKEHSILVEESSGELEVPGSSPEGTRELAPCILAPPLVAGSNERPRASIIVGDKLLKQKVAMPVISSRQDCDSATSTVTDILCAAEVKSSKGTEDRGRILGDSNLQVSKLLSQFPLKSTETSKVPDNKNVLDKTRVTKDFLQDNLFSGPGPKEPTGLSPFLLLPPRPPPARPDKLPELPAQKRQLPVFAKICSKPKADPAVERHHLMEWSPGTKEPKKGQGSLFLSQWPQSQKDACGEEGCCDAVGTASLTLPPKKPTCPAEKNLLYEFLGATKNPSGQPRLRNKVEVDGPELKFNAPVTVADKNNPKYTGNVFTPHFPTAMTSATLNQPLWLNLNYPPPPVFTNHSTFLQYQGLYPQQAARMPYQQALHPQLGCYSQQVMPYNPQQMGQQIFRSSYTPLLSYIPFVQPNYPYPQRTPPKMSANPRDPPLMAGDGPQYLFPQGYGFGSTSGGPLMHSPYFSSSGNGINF

Variants of: B1
Conditions: with at2l2_human PHYKPL

effect of a mutation on the interaction	Variant
with no effect	P669A

Variants of: B1
Conditions: with ip6k2_human IP6K2, Q9UHH9
ip6k2_human IP6K2, Q9UHH9, sequence (Q9UHH9 whole entry): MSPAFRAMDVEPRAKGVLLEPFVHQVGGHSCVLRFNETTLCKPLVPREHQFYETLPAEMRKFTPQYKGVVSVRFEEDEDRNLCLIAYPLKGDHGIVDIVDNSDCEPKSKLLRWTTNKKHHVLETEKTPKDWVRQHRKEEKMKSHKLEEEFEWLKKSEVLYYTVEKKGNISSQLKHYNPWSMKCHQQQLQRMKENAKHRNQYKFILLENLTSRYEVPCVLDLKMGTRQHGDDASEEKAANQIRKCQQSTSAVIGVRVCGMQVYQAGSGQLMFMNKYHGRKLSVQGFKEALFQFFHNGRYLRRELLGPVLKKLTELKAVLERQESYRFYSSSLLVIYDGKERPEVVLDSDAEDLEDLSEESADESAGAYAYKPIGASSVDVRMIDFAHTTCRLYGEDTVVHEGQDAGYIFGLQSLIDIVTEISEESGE

effect of a mutation on the interaction	Variant
with no effect	P669A

Variants of: B1
Conditions: with atpb_human ATP5F1B

effect of a mutation on the interaction	Variant
with no effect	P669A

Variants of: B1
Conditions: with optn_human OPTN

effect of a mutation on the interaction	Variant
with no effect	P669A

Variants of: B1
Conditions: with tbb5_human TUBB

effect of a mutation on the interaction	Variant
with no effect	P669A

Variants of: B1
Conditions: with mk09_human MAPK9, P45984

effect of a mutation on the interaction	Variant
with no effect	P669A

Variants of: B1
Conditions: with ptcd3_human PTCD3, Q96EY7

effect of a mutation on the interaction	Variant
with no effect	P669A

Variants of: B1
Conditions: with lrc8e_human LRRC8E

effect of a mutation on the interaction	Variant
with no effect	P669A

Variants of: B2
Conditions: with mp2k5_human MAP2K5, Q13163

effect of a mutation on the interaction	Variant
with no effect	P669A

Variants of: B3
Conditions: with stk16_human STK16, O75716
stk16_human STK16, O75716, sequence (O75716 whole entry): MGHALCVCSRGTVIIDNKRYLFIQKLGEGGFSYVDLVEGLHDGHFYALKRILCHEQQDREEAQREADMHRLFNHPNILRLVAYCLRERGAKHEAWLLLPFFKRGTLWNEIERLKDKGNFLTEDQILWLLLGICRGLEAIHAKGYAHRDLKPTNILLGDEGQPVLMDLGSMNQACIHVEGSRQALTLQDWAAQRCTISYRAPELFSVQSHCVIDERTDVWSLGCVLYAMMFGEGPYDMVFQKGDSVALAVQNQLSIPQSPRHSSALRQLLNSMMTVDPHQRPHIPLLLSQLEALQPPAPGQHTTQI

effect of a mutation on the interaction	Variant
disrupting interaction strength	V168M

Variants of: B4
Conditions: with ndel1_human NDEL1, Q9GZM8

effect of a mutation on the interaction	Variant
with no effect	K288E

Variants of: B5
Conditions: with ca094_human C1orf94, Q6P1W5

effect of a mutation on the interaction	Variant
with no effect	R503Q
